The subject of test [1] is T1, TevENO (T. evansi enolase).
T1 construct: gene ENO; recombinant, codon-optimised gene in pET21b, E. coli BL21(DE3); N-terminal His6 tag and TEV cleavage site, tag cleavage not described
Kind of test: PYK/LDH coupled assay, NADH absorbance at […] nm, Michaelis-Menten fit. The settings on record: 0.1 M triethanolamine/HCl, pH 7.6, 25 °C, 2 mM MgSO4, 17 mM KCl, 1.1 mM ADP, 0.42 mM NADH; 2-PGA 0 to 1 mM. Type of test: biochemical, Trypanosoma evansi.

Test [2] addresses recombinant Trypanosoma evansi enolase (TevENO), His-tagged (Trypanosoma evansi). Kind of test: SEC; analytical SEC, ENrich SEC 650 10 x 300 column, buffer A (50 mM sodium phosphate, 5 mM MgCl2, pH 7.0); 500 μg TevENO, 168.9 μg Nb11, or mixtures at TevENO:Nb11 monomer ratios 2:1, 2:2, 2:3, 2:4 incubated 1 h; peaks analysed by SDS-PAGE. (In general: SEC sorts molecules by how far they enter the pores of the column.)

Test [3] has as its target T2, recombinant Trypanosoma evansi enolase (TevENO), His-tagged (Trypanosoma evansi).
T2 construct: monomer MM = 48.41 kDa as printed; also called T. evansi enolase; recombinant TevENO; source: E. coli BL21 (DE3), purified (IMAC, SEC)
T2 chain: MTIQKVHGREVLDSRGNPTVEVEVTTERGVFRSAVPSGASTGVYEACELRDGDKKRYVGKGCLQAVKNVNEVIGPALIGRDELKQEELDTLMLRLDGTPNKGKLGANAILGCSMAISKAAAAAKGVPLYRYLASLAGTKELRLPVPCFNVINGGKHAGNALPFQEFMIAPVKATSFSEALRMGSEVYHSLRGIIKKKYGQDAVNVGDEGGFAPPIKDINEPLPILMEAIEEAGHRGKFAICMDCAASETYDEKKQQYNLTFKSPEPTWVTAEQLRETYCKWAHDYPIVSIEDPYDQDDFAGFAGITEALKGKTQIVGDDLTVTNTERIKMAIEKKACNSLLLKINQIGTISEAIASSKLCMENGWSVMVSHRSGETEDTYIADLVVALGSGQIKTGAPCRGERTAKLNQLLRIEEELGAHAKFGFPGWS
Kind of test: ELISA; heterologous sandwich ELISA: His-tagged Nb11 coated at 1 μg/mL, TevENO 1 μg/mL in PBS, HA-tagged detection Nb at 1 μg/mL. The settings on record: both partners purified. (In general: An ELISA detects its analyte on a solid surface through an enzyme-linked reagent.)

As a reminder, the Km is the concentration of substrate that gives half-maximal velocity. Usually stoichiometry N stands for the number of molecules, sites or subunits per partner or assembly.

As to `O=C(O)[C@@H](CO)OP(=O)(O)O` [2-PGA, 2-phosphoglycerate], the Michaelis-Menten constant (Km) in test [1] was 52 µM.

As for “recombinant Trypanosoma evansi enolase (TevENO), His-tagged (enzyme)”, in test [2], the stoichiometry N stood at 2.

B1: NbR1-10 (VHH)
VHH: QVQLQESGGGLVQPGGSLRLSCAAPGSIFSIFSGNIMGWYRQAPGKQRDFVASISSGGATNYADSVKGRFTISRDNAKNTVYLQMNNLKPEDTAVYYCNTVGGVHTNSWGQGTQVTVSS
notes: alpaca Nanobody; source: E. coli WK6, periplasmic extract, purified (His-Select Nickel resin, SEC)
Take B1: in test [3], the binding result is “binds”.
